The values that follow are results of earlier work, collected in article PMC5401657.

pKd: −log10 of the molar value.

For the data set, the target named is integrin αvβ3 (Homo sapiens) (UniProt P06756). The data set can be described thus: SPR.
Chain of UniProt P06756 (P06756 31-992, chain 1 of 2): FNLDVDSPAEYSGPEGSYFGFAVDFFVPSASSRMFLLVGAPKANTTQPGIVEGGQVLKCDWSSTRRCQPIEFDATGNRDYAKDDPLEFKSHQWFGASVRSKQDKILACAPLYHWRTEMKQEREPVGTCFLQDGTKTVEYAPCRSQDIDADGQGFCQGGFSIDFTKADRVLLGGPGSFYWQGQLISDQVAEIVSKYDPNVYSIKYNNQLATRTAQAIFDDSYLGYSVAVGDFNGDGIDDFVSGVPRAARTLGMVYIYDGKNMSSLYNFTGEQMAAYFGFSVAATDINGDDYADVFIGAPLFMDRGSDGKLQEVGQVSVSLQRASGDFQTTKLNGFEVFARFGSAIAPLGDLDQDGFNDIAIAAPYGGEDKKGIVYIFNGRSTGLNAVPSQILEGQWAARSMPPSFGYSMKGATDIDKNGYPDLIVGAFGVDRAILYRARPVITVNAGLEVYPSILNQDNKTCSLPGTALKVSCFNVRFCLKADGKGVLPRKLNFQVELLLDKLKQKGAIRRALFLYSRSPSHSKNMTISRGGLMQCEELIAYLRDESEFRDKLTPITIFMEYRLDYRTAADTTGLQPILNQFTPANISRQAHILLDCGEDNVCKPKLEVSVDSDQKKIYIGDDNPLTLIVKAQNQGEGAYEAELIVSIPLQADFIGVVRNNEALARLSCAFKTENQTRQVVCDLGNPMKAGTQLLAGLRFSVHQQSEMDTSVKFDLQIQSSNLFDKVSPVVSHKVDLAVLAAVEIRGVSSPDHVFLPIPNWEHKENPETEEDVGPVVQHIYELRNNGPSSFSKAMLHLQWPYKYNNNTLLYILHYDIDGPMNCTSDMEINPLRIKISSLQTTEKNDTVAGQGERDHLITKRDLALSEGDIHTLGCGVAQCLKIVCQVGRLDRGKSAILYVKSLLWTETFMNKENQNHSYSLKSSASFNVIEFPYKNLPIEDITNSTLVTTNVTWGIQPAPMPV
Chain of UniProt P06756 (P05106 27-718, chain 2 of 2, further chain): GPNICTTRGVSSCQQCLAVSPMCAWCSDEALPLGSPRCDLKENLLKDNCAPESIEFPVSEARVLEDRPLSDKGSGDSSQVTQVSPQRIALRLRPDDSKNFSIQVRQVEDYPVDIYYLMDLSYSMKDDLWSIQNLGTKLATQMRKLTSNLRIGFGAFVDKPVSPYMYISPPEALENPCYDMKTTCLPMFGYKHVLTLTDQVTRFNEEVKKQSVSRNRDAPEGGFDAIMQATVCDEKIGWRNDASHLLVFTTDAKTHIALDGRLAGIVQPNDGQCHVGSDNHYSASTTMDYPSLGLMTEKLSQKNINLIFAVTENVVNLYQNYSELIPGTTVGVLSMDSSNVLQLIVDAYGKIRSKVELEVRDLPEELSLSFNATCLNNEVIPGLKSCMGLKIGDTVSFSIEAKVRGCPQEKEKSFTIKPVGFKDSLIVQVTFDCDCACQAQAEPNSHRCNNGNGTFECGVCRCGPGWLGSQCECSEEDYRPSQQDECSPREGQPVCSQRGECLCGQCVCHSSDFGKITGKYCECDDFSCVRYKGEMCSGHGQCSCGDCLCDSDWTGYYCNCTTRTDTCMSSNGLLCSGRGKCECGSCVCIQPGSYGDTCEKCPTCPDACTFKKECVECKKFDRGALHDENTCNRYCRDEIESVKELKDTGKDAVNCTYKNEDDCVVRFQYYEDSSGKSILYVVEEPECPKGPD

IGF1 (from UniProt P05019): the pKd is 6.30.
